One experiment deals with MDA-MB-231 cells. The experiment in a line: Soft agar colony formation of Ea-4 cDNA transfectants. It counts as cell-based, human. The settings on record: cells transfected with Ea-4-peptide cDNA (clones E9 and E15). The text has this:
Two gene constructs, CMV-IGF-1-sp-Ea-4-cDNA-IRES-EGFP and CMV-IRES-EGFP were used in the transfection studies. The first construct (FIG. 9A) contained Ea-4 peptide cDNA (with a signal peptide sequence derived from hlGF-I), a ribosome re-entry site (IRES) and an enhanced green fluorescence protein (EGFP) marker gene. […] The expression of both gene constructs was driven by a promoter from CMV. Vectors containing the recognized control sequences and marker gene are available from commercial sources (CLONTECH, Palo Alto, Calif.).
(§1) Transfection of the cells was accomplished as follows. MDA-MB-231 cells were cultured in F12/DMEM supplemented with 10% FBS and 10 ng/ml of insulin to 90% confluence. About 5×10^6 cells were harvested and resuspended in 1 mL of serum-free F12/DMEM containing 20 µg of un-linearized constructs. The cells were electroporated in a BRL Cell-Porator using the following settings: low .OMEGA., 1180 micro Faraday (µF) capacitance, and two pulses at 200 volts. Following electroporation, cells were resuspended in 12 mL of fresh growth medium and seeded into a 6-well plate to recover. Permanent transfectants expressing green fluorescence protein (GFP) were enriched in a medium containing neomycin (G418) at 1 mg/mL for ten days and followed with 500 µg/mL for continuous maintenance. […]

Another experiment has as its system MDA-MB-231 (C) cells. The experiment in a line: Apoptosis observed under microscope. The class given is cell-based, human. The settings on record: about 1.5 μM, about two hours. Here is the method: FIG. 21 depicts apoptosis in MDA-MB-231 cells induced by rtEa4-peptide. MDA-MB-231 cells treated with about 1.5 μM of rtEa4-peptide (A, B, and C) or control peptide (D) for about two hours and observed under a microscope. Arrows indicate apoptotic cells.
Killing of cancer cells by E-peptide could be the consequence of apoptosis or necrosis. To differentiate these two possibilities, MDA-MB-231 (C) cells were grown in culture in the presence of about 1.5 μM of trout Ea4-peptide. After about two hours of incubation the cells were observed under a microscope. […] FIG. 22 presents the results of the effect of trout Ea4-peptide on induction of apoptosis in ovarian cancer cells (SKOV-3).

For another experiment, the system named is MDA-MB-231(C). Nature of the experiment: Induction of apoptosis (TUNEL assay). It counts as cell-based, human. Particulars: about 1.5 μM, two to three days. Here is the method:
FIG. 23 depicts induction of apoptosis in MDA-MB-231 cells by rtEA4-peptide. MDA-MB-231 cells were treated wit control protein or rtEa4-peptide (about 1.5 μM) for two days, and three days, and were then subjected to TUNEL assay. (A) Treatment with rtEa4-peptide for two days; (B) Treatment with rtEa-4-peptide for three days.
(§2) FIG. 24 depicts the effect of rtEa4-peptide on induction of apoptosis in MDA-MB-231 cells treated with rtEa4-peptide. (A) Detection of apoptosis by TUNEL assay; (B) Detection of apoptosis y detecting the induction of the activated caspase-3 activity. MDA-MB-231 cells were treated with about 1.5 μM of rtEa4-peptide for about 48 hours, fixed and subjected to TUNEL assay or stained with anti-human activated caspase-3 serum conjugated with rhodamine. Hydrogen peroxide (H2O2), 0.5 mM, was used to induce apoptosis as a positive control.

The test system of experiment [1] is activated caspase-3 in MDA-MB-231(C). The experiment in a line: Activated caspase-3 staining. The class given is cell-based, human. Particulars: about 1.5 μM, about 48 hours. How it is done:
as §2
Induction of caspase-3 has been widely used as an indicator of cells undergoing apoptosis.

In experiment [2] the test system is NIH 3T3 cells and caprine mammary epithelium cells (CMEC). The settings on record: recombinant peptides; cited from earlier work.
For experiment [3], the system named is MDA-MB-231 and ZR-75-1 cells. Nature of the experiment: Colony formation of hEb cDNA transfectants. The settings on record: cells transfected with hEb cDNA. The class given is cell-based, human. How it is done: Two gene constructs, CMV-IG F-1-sp-hEb-cDNA-IRES-EGFP and CMV-IRES-EGFP were used in the transfection studies. The first construct (FIG. 9B) contained hEb peptide cDNA (with a signal peptide sequence of hlGF-1), a ribosome re-entry site (IRES) and an enhanced green fluorescence protein (EGFP) marker gene. […] The expression of both gene constructs was driven by a promoter from CMV.
as §1, with “maintenance. Individual green cell clones of transfectants were isolated from the enriched population by the method of serial dilution.” for “maintenance.”

B1: rtEa-4: recombinant Ea-4 peptide of rainbow trout pro-IGF-I, 74 amino acid residues (SEQ ID NO: 2) (protein)
chain: RSVRAQRHTDMPRTPKVSTAVQNVDRGTERRTAQHPDKTKTKKKPLSGHSHPSCKEVHQKNSSRGNTGGRNYRM
modifications: Oncorhynchus mykiss
As to B1, the colony formation activity result in the experiment on MDA-MB-231 cells is “abolished”. Moreover, the “apoptosis (microscopy)” value with MDA-MB-231 (C) cells is given as “going through apoptosis”. Moreover, in the experiment on MDA-MB-231(C), the TUNEL staining result was “TUNEL staining positive”. For the same molecule, the “level of activated caspase-3 activity” value in experiment [1] is recorded as “induced”. In addition, in experiment [2], the mitogenic activity result is “possess mitogenic activity”.

B2: hEb: chemically synthesized human Eb peptide of pro-IGF-I, 77 amino acid residues (SEQ ID NO:1) (peptide, listed as Homo sapiens)
chain: RSVRAQRHTDMPKTQKYQPPSTNKNTKSQRRKGWPKTHPGGEQKEGTEASLQIRGKKKEQRREIGSRNAECRGKKGK
With B2, in experiment [3], the colony formation activities result is “greatly reduced or diminished completely”.

The values above are taken from patent US7700353B2, “Compositions and methods for inducing apoptosis in tumor cells” (E-P Therapeutics, Inc., priority 1998, dated 2010).
